Measured values published in publication PMC6007404 (Nucleic Acids Research, 2018).

T1: MotA E153A (Enterobacteria phage T4, UniProt P22915 1-211, E153A)
T1 sequence: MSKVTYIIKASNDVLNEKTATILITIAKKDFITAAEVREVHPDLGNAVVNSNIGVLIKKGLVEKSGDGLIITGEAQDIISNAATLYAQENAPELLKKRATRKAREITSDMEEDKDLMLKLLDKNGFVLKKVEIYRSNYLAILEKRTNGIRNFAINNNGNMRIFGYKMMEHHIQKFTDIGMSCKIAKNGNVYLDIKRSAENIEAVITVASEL

T2: MotA Y134A (Enterobacteria phage T4, UniProt P22915 1-211, Y134A)
T2 sequence: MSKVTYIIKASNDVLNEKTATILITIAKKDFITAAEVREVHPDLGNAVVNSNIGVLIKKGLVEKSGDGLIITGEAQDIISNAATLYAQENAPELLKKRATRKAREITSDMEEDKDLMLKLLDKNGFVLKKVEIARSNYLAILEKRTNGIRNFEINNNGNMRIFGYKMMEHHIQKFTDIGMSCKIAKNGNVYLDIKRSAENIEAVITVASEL


Key:
[1] = target: T1, MotA E153A; assay: EMSA; slightly tighter than wt; EMSA: 0.01 pmol 32P-DNA, 1.7 pmol MotA, native 12% PAGE in 1x TBE at 4 C, other conditions as in ref 14; SPR: biotin-DNA on neutravidin chip, buffer as in ref 2
[2] = target: T2, MotA Y134A; assay: EMSA; similar to wt; EMSA: 0.01 pmol 32P-DNA, 1.7 pmol MotA, native 12% PAGE in 1x TBE at 4 C, other conditions as in ref 14; SPR: biotin-DNA on neutravidin chip, buffer as in ref 2
[3] = target: T1, MotA E153A; assay: EMSA; no difference; data not shown; EMSA: 0.01 pmol 32P-DNA, 1.7 pmol MotA, native 12% PAGE in 1x TBE at 4 C, other conditions as in ref 14; SPR: biotin-DNA on neutravidin chip, buffer as in ref 2

Row | Binder | binding result [1] | binding result [2] | binding result [3]
1 | EMSA 19-mer unmodified (dsDNA) DNA 1: AATTATTTGCTTTAGATTA DNA 2: TAATCTAAAGCAAATAATT | binds | binds | –
2 | EMSA 19-mer GHMe/unmod (dsDNA, beta-D-glucosyl-5-hydroxymethyl-dC at top C10) DNA 1: AATTATTTGCTTTAGATTA DNA 2: TAATCTAAAGCAAATAATT | – | – | binds
